pyrene = pyrene (fluorescent label)

One molecule from patent US20100233095A1 can be followed below.

For the test, the target named is fibrillar amyloid target protein (UniProt P05067). The experiment in a line: pyrene excimer:monomer fluorescence ratio of di-pyrene probe in the presence of fibrillar amyloid target protein.

For the molecule pyrene-KLVFFAEDVGSNKHAIIELMK(pyrene)-NH2 [Peptide 22 (SEQ ID NO:2)], the maximal signal gain relative to the reference peptide (SEQ ID NO:1) is 2.6 fold.
